{
  "source": "patent US20210292393A1",
  "about": "(published 2021)",
  "key": {"[1]": {"biological_target": "T1, SARS-CoV-2 full length spike protein (wild type), expressed on the surface of transiently transfected CHO … (SARS-CoV-2, UniProt P0DTC2 14-1273)", "T1 construct": "also called SARS-CoV-2 spike (S) protein; Wild-Type SARS-CoV-2", "assay": "flow cytometry, CHO cells with full-length WT SARS-CoV-2 spike"}, "[2]": {"biological_target": "T2, SARS-CoV-2 full length spike protein (wild type) (SARS-CoV-2, UniProt P0DTC2 14-1208)", "T2 construct": "also called SARS-CoV-2 spike; S protein", "assay": "multiplexed bead assay, flow cytometry; column D"}, "SARS-CoV-2 spike protein": {"biological_target": "SARS-CoV-2 spike protein (SARS-CoV-2, UniProt P0DTC2 14-1208)", "assay": "HT-SPR, Carterra LSA; mAb coupled to chip, antigen injected; 1:1 fit"}, "[3]": {"biological_target": "T1, SARS-CoV-2 full length spike protein …"}, "[4]": {"biological_target": "NCP-CoV (2019-nCoV) Spike Protein (S1 Subunit, His Tag) (SARS-CoV-2, UniProt P0DTC2 16-685)", "assay": "HT-SPR (Carterra LSA), mAb on chip, S1 subunit (His tag) in solution, 25 C"}, "[5]": {"biological_target": "2019 nCoV Spike Protein (RBD, His tag) (SARS-CoV-2, UniProt P0DTC2 329-520)", "assay": "HT-SPR (Carterra LSA), mAb on chip, RBD (His tag) in solution, 25 C"}, "[6]": {"biological_target": "T3, SARS-CoV-2 spike protein (nCoV-S Spike Protein Trimer, NIH) (SARS-CoV-2, UniProt P0DTC2 14-1208)", "T3 construct": "also called S protein", "assay": "HT-SPR (Carterra LSA), mAb on chip, SARS-CoV-2 spike protein titrated, 25 C"}, "[7]": {"biological_target": "T3, SARS-CoV-2 spike protein (nCoV-S Spike …)", "assay": "HT-SPR (Carterra LSA), mAb on chip, SARS-CoV-2 spike protein titrated, 37 C"}},
  "data": [
    {"binder": "antibody 443 (antibody, V domains shown) VH: QMRLEESGPGLVKPSETLSLTCTVAGGSITSSDYFWGWLRQSPGKGLEWIASTYHGGSIQYHPALKSRVTISVDASKNQISLRLSSVTAADTAVYYCARDRGDDGPMGTYYFDHWGQGALVTVSS VL: QSVLTQPPSVSGAPGQSVTISCAGSSSNIGAGHDVHWYQQIPGTAPKLLICGNTNRPSGVPERFSGSRSGTSASLAITGLQAEDEAVYYCQSYDPSHVFFGTGTKLTVL", "values": [
      {"measurement": "binding result", "setting": "[1]", "result": "no binding"}
    ]},
    {"binder": "antibody 328 (antibody, V domains shown) VH: QVQLQESGPGLVKPSGTLSLTCAVSGGSISSSNWWSWVRQPPGKGLEWIGEIYHSGSTNYNPSLKSRVTISVDNSKNQFSLKLSSVTAADTAVYYCARESVAAAGISYYYYGMDVWGQGTTVTVSS VL: DIQMTQSPSSLSASVGDRVTITCRASQGIRNDLGWYQQKPGKAPKRLIYAASSLQSGVPSRFSGSGSGTEFTLTVSGLQPEDFATYYCLQYNSSPLTFGGGTKVEIK", "values": [
      {"measurement": "binding result", "setting": "[2]", "result": "no binding"}
    ]},
    {"binder": "antibody 434 (antibody, V domains shown) VH: QVQLVQSGAEVKKPGASVQVSCKASGYTFSDYYIFWVRQAPGQGLEWMGCINPKSGGAIYAQRFQGRVTMTRDTSFNTAYMEMNRLGSDDTAVYYCVTRGPPDIAASGFAWHLDVWGQGTTVTVSS VL: DIVMTQSPLSLPVTPGEPASISCRSSQSLLSSNGYNYLEWYLQKPGQSPQLLMYLGSNRASGVPDRFSGSGSGTDFTLKINRVEAEDVGVYYCMQALQTPLTFGGGTKVEIK", "values": [
      {"measurement": "binding result", "setting": "[1]", "result": "no binding"}
    ]},
    {"binder": "antibody 333 (antibody, V domains shown) VH: QVHLVESGGGVVLPGRSLRLSCSASQFIFSNYDMHWVRQSPGMGLEWVAGISSDGSDKYYIDSVRGRFTISRDNAKNTLFLQMNSLTTEDTAVYSCAKGGGKFGQYWGRGTLVTVSS VL: AIQMTQSPSSLSASVGDRVTITCRASQVIRNDLAWFQQKPGEAPNLLVYSASNLQSGVPSRFSGSGSGTDFTLTISSLQPEDFATYYCLQDYSYPYTFGQGTKLDMK", "values": [
      {"measurement": "binding result", "setting": "[2]", "result": "no binding"}
    ]},
    {"binder": "antibody 351 (antibody, V domains shown) VH: HVQLVESGGGVVQPGRSLRLSCAASGFISRNYGMEWVRQAPGQGLEWVAGIWYDGSKKYYADSVKGRFTISRDTSKNTLFLQMDSLRAEDTAVFYCATATKTFCGGDCPPGGMDVWGQGTTVTVST VL: SYVLTQPPSVSVAPGKTAWITCVGNNIESESVHWYQQRPGQAPVLVIYYDSDRPSGIPERFFGSNSGNTATLTISRVEAGDEADYYCQVWDSNSDLMVFGGGTKLTVL", "values": [
      {"measurement": "binding result", "setting": "[2]", "result": "no binding"}
    ]},
    {"binder": "antibody 343 (antibody, V domains shown) VH: QVQLVESGGDVVQPGTSLRLSCAASGFTFNNYGFHWVRQAPGKGLEWVALISSDGASTHYADSVKGRFTISRDSSVNTLYLQMNSLSLEDTAVYYCATGHCGTTCYYFDYWGQGTLVSVSS VL: DIQVTQSPSYLSASVGDRVTITCRASQTISTFLQWYQQKVGKAPKLLIYAASTLQSGVPSRFSGSGSGTDFSLTISSLQPEDFATYYCQQSYSAPLSFGGGTKVEIK", "values": [
      {"measurement": "binding result", "setting": "[2]", "result": "no binding"}
    ]},
    {"binder": "antibody 570 (antibody, V domains shown) VH: QVQLQESGPGLVKPSQTLSLTCTVSGGSISSGSYYWSWIRQPAGKGLEWIGRIYTSGSTNYNPSLKSRVTISVDTSKNQFSLKLSSVTAADTAVYYCAREGQWLYRFDYWGQGTLVTVSS VL: not shown", "values": [
      {"measurement": "Kd", "setting": "SARS-CoV-2 spike protein", "result": 0.0454, "unit": "nM"},
      {"measurement": "koff", "setting": "SARS-CoV-2 spike protein", "result": "1e-05", "unit": "s⁻¹"},
      {"measurement": "kon", "setting": "SARS-CoV-2 spike protein", "result": 220000, "unit": "M⁻¹ s⁻¹"}
    ]},
    {"binder": "antibody 450 (antibody, V domains shown) VH: EVQLVESGGGLVQPGGSLRLSCAASEFTFSSYWMSWVRQAPGKGLEWVANIKQDGSEKYYVDSVKGRFTISRDNAKNSLYLQMNSLRAEDTAVYYCARVGEYSGYDLFFDYWGQGTLVTVSS VL: NFMLTQPHSVSESPGKTVTISYTGSSGSIASNYVQWYQQRPGSAPTTVIYEDNQRPSGVPDRFSGSIDSSSNSASLTISGLKTEDEADYYCQSYDSSNQGVFGGGTKLTVL", "values": [
      {"measurement": "median fluorescence intensity, fold over isotype control", "setting": "[3]", "result": 0.85, "unit": "fold over isotype"},
      {"measurement": "binding result", "setting": "[1]", "result": "no binding"}
    ]},
    {"binder": "antibody 445 (antibody, V domains shown) VH: QVQLVQSGAEVKKPGASVKVSCKASGYTFTSYYMHWVRQAPGQGLEWMGIINPSGGSTSYAQKFQGRVTMTRDTSTSTVYMELSSLRSEDTAVYYCARDPTEVGATSEYYYYGMDVWGQGTTVTVSS VL: not shown", "values": [
      {"measurement": "Kd", "setting": "[4]", "result": 613, "unit": "nM"}
    ]},
    {"binder": "antibody 574 (antibody, V domains shown) VH: QVQLVESGGGVVQPGRSLRLSCAASGFTFSSYAMHWVRQAPGKGLEWVAVISYDGSNKYYADSVKGRFTISRDNSKNTLYLQMNSLRAEDTAVYYCARTDRYYGSGAHFDYWGQGTLVTVSS VL: not shown", "values": [
      {"measurement": "Kd", "setting": "SARS-CoV-2 spike protein", "result": 2.28, "unit": "nM"},
      {"measurement": "koff", "setting": "SARS-CoV-2 spike protein", "result": 0.0003, "unit": "s⁻¹"},
      {"measurement": "kon", "setting": "SARS-CoV-2 spike protein", "result": 132000, "unit": "M⁻¹ s⁻¹"}
    ]},
    {"binder": "antibody 332 (antibody, V domains shown) VH: QVTLRESGPALVKPTQTLTLTCTFSGFSLSTSGMCVSWIRQPPGKALEWLALIDWDDDKYYSTSLKTRLTISKDTSKNQVVLTMTNMDPVDTATYYCARIHDDILTGYHYVDYWGQGTLVTVSS VL: not shown", "values": [
      {"measurement": "binding result", "setting": "[2]", "result": "no binding"}
    ]},
    {"binder": "antibody 474 (antibody, V domains shown) VH: EVQLVESGGGLVQPGGSLRLSCAASGFTFSSYWMHWVRQAPGKGLVWVSRINSDGSSTSYADSVKGRFTISRDNAKNTLYRQMNSLRAEDTAVYYCALGPLDIVGSYYYYGMDVWGQGTTVTVSS VL: NFMLTQPHSVSESPGKTVTISCTGSSGSIASNYVQWYQQRPGSAPTTVIYEDNQRPSGVPDRFSGSIDSSSNSASLTISGLKTEDEADYYCQSYDSSNQDVVFGGGTKLTVL", "values": [
      {"measurement": "binding result", "setting": "[1]", "result": "no binding"}
    ]},
    {"binder": "antibody 506 (antibody, V domains shown) VH: QITLKESGPTLVKPTQTLTLTCTFSGFSLSTSGVGVGWIRQPPGKALEWLALIYWDDDKRYSPSLKSRLTITKDTSKNQVVLTMTNMDPVDTATYYCAHHSLSSIFDYWGQGTLVTVSS VL: QSALTQPASVSGSPGQSITISCTGTSSDVGDYNYVSWYQQHPGKAPKLMIYEVSNRPSGVSNRFSGSKSGNTASLTISGLQAEDEADYYCSSYTSSSTVFGGGTKLTVLG", "values": [
      {"measurement": "Kd", "setting": "[5]", "result": 14.7, "unit": "nM"},
      {"measurement": "Kd", "setting": "[4]", "result": 90.9, "unit": "nM"},
      {"measurement": "Kd", "setting": "[6]", "result": 0.0491, "unit": "nM"},
      {"measurement": "Kd", "setting": "[7]", "result": 0.0693, "unit": "nM"}
    ]},
    {"binder": "antibody 292 (antibody, V domains shown) VH: EVQLVESGGGLIQPGGSLRLSCAASGFTVSSNYMSWVRQAPGKGLEWVSVIYSGGSTYYADSVKGRFTISRDNSKNTLYLQMNSLRAEDTAVYYCARDLQGGGGPWGQGTLVTVSS VL: AIQMTQSPSSLSASVGDRVTITCRASQGIRNDLGWYQQKPGKAPKLLIYAASSLQSGVPSRFSGSGSGTDFTLTISSLQPEDFATYYCLQDYNYPRTFGQGTKVEIKR", "values": [
      {"measurement": "Kd", "setting": "[5]", "result": 6.78, "unit": "nM"},
      {"measurement": "Kd", "setting": "[4]", "result": 118, "unit": "nM"},
      {"measurement": "Kd", "setting": "[6]", "result": 0.0608, "unit": "nM"},
      {"measurement": "Kd", "setting": "[7]", "result": 0.0786, "unit": "nM"}
    ]},
    {"binder": "antibody 481 (antibody, V domains shown) VH: EVQLVESGGGLIQPGGSLRLSCAASGFTVSSNYMSWVRQAPGKGLEWVSVIYSGGSTFYADSVKGRFTISRDNSKNTLYLQMNSLRAEDTAVYYCAREVAGTYDYWGQGTLVTVSS VL: DIQMTQSPSSVSASVGDRVTITCRASQGISSWLAWYQQKPGKAPKLLIYAASSLQSGVPSRFSGSGSGTDFTLTISSLQPEDFATYYCQQANSFPGGTFGPGTKVDIKR", "values": [
      {"measurement": "Kd", "setting": "[5]", "result": 14.1, "unit": "nM"},
      {"measurement": "Kd", "setting": "[4]", "result": 170, "unit": "nM"},
      {"measurement": "Kd", "setting": "[6]", "result": 0.118, "unit": "nM"},
      {"measurement": "Kd", "setting": "[7]", "result": 0.234, "unit": "nM"}
    ]},
    {"binder": "antibody 494 (antibody, V domains shown) VH: EVQLVESGGGLVQPGGSLRLSCAASGFTVSSNYMSWVRQAPGKGLEWVSVIYSGGSTFYADSVKGRFTISRDNSKNTLYLQMNSLRAEDTAVYYCARDSGDQLLDYWGQGTLVTVSS VL: DIQLTQSPSFLSASVGDRVTITCRASQGISSYLAWYQQKPGKAPKLLIYAASTLQSGVPSRFSGSGSGTEFTLTISSLQPEDFATYYCQQLNSYPPFTFGPGTKVDIKR", "values": [
      {"measurement": "Kd", "setting": "[5]", "result": 13.5, "unit": "nM"},
      {"measurement": "Kd", "setting": "[4]", "result": 189, "unit": "nM"},
      {"measurement": "Kd", "setting": "[6]", "result": 0.0835, "unit": "nM"},
      {"measurement": "Kd", "setting": "[7]", "result": 0.225, "unit": "nM"}
    ]}
  ]
}
